Measured values taken from US9750814B2, “Polypeptides to inhibit epstein barr viral protein BHRF1 and B cell lymphoma family proteins” (priority 2014, dated 2017).

B1: MINDI: SEQ ID NO: 2; target Mcl-1 (protein)
chain: ADPKKVLDKAKDQAENRVRELKQVLEELYKEARKLDLTQEMRKKLIERYAAAIIRAIGDINNAIYQAKQEAEKLKKAGLVNSQQLDELLRRLDELQKEASRKANEYGREFELKLEY
B2: Index 21: SEQ ID NO: 113; computational precursor for BbpD04 (protein)
chain: GFDWKKVLDKAKDLAENDVREAKQKLEEFYKKAMKLDLTQEMRRKLMLEWIAAMLMAIGDIFNAIEQGKQEADKLKKLGKVLSQLLDELKRRLEELKEEAALKAHDFGREFELKLLFG
modifications: optionally absent

Legend:
[1] = test system: Bim association with pro-survival homologs in HeLa cells; experiment: Bim co-immunoprecipitation in HeLa cells; type: cell-based, human
Procedure: Cells were harvested, washed with PBS, and extracted with ice-cold Chaps buffer (40 mM Tris-HCl, pH 7.5, 150 mM NaCl, 1 mM EDTA, 2% CHAPS, and Complete Protease Inhibitors [Roche]) for 20 minutes, on ice. Extracts were spun down at 10,000 g for 10 min and supernatants were removed and used for SDS-PAGE analysis. Expression of proteins of interest was analyzed using antibodies against Bcl-2, Bcl-xL, Mcl-1 (as above), Bfl-1 (ProsSci, Inc.), Bim (BD Biosciences), and tubulin (SigmaAldrich). For immunoprecipitation experiments, 1,000 μg protein lysates were pre-cleared and then incubated with 3 μg Bim antibody for 2 hours at 4° C., followed by addition of Protein A/G Plus agarose beads (Santa Cruz Biotechnology) and overnight incubation with rotation at 4° C. Negative control reactions used normal IgG. Immunoprecipitates were washed four times with lysis buffer and eluted with loading buffer at 95° C., 2 times for 10 min, followed by SDS-PAGE analysis.

[2] = target: T1, Mcl-1 (Homo sapiens, UniProt Q07820); experiment: Bio-layer interferometry (BLI), immobilized Mcl-1; type: binding; details: BLI titrations
T1 construct: Mcl-1 a.a; made in house; host or cells: E. coli BL21* (DE3)
T1 sequence (Q07820 172-327): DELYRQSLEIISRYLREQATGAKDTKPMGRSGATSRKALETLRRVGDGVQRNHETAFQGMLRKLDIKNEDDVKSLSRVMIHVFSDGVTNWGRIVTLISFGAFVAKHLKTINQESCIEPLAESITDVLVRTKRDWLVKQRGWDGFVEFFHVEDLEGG
Text: 11-175 (NP_065129.1), Mcl-1 a.a. […] For later BLI analysis, Bcl-B and Bfl-1 were genetically fused to C-terminal maltose-binding-protein with an avi-6his tag for improved solution properties. Codon usage was optimized for E. coli expression. […] The genes for individually-tested designed proteins were assembled from oligos (Hoover and Lubkowski, 2002) and cloned into pET29b (NdeI-XhoI sites) with C-terminal 6his tags for purification from E. coli, or cloned into PETCON (NdeI-XhoI sites; (Fleishman et al., 2011)) for yeast surface expression. Alternative tags were added using PCR methods. Point mutations were made by overlapping PCR (Procko et al., 2013). Error-prone PCR with an average error rate of 1.3 amino acid substitutions per clone used GeneMorph II Random Mutagenesis (Agilent Technologies).
Purified avi-6his-tagged ligands (20 μM) in reaction buffer (250 mM potassium glutamate, 20 mM Tris-Cl [pH 7.5], 50 mM bicine [pH 8.3], 10 mM ATP, 10 mM MgOAc, 100 μM d-biotin) were enzymatically biotinylated with 150 U/μl BirA (Avidity) at room temperature overnight, followed by purification with NiNTA-agarose and SEC. Biotinylated ligands were stored at 4° C. in 150 mM NaCl, 20 mM Tris-Cl (pH 7.5), 1 mM DTT, 0.02% sodium azide.
Data were collected on an Octet RED96 (Forte Bio) and processed using the instrument's integrated software. […] Biosensors were dipped in solutions containing the analyte of interest to measure association, and transferred back to empty binding buffer for monitoring dissociation. Kinetic constants were determined from the mathematical fit of a 1:1 binding model.

[3] = test system: Mcl-1-dependent MEF line; experiment: Long-term survival (colony) assay, Mcl-1-dependent MEFs; type: cell-based, mouse; details: seven day colony survival, doxycycline-induced expression
Text: Mouse embryonic fibroblasts were generated from E13-E14.5 embryos derived from CreERT2/Bcl-x^fl/fl/Mcl-I^fl/fl C57BL/6 mice (Kelly et al., 2014) and immortalized (at passage 2-4) with SV40 large T antigen. Retroviral expression constructs in the pMIG vector (Murine Stem Cell Virus-IRES-GFP) expressing each FLAG-tagged pro-survival protein were transiently transfected using LIPOFECTAMINE™ (Invitrogen), into Phoenix ecotropic packaging cells. Filtered virus-containing supernatants were used to infect the MEFs by spin inoculation as previously described (Lee et al., 2008). Cells stably expressing each pro-survival protein were selected by sorting GFP^+ve cells 24 hours after spin inoculation and protein expression verified by Western blotting using an anti-FLAG antibody. Following verification of exogenous pro-survival protein expression, each cell line was treated with 1 μM Tamoxifen (Sigma-Aldrich) to enable deletion of endogenous Mcl-1 and Bcl-xL. Deletion of endogenous Mcl-1 and Bcl-xL was shown by Western blotting using anti-Mcl-1 (Rockland Clone, 600-401-394) and anti-Bcl-xL (BD Transduction Laboratories Clone 44/Bcl-x) antibodies. Cells were maintained in DME Kelso medium supplemented with 10% (v/v) fetal bovine serum, 250 mM L-asparagine and […] 2-mercaptoethanol.
Inducible αMCL1 and αBFL1 constructs were generated in a lentiviral vector described in Aubrey et al. (2015). […]

[4] = test system: colon cancer cell lines; experiment: Long-term survival assay, colon cancer cell lines; type: cell-based, human; details: colon cancer lines
Procedure: Inducible αMCL1 and αBFL1 constructs were generated in a lentiviral vector described in Aubrey et al. (2015). Ligand expression is linked via the T2A peptide to mCherry™ fluorescent reporter protein. […] Viral supernatants were then filtered prior to target cell transduction. […] For infection of MEFs and colon cancer cell lines, equal volume of virus-containing supernatant was added to target cells pre-incubated with 10 ng/μL polybrene, and centrifuged at 2500 rpm for 2 hours at 32° C. Following spin inoculation, cells were then incubated overnight at 37° C. Cells expressing the doxycycline-inducible constructs were then selected by sorting mCherry^+ve cells. MEFs were maintained in DME Kelso medium supplemented with 10% (v/v) FBS, 250 mM L-asparagine and […] 2-mercaptoethanol. Colon cancer cell lines were maintained in DMEM/F-12 supplemented with 10% (v/v) FBS.
MEF and colon cancers were seeded in 6-well tissue culture plates in 2 mL culture media at 150 cells per mL. The next day and every 48 hours following, doxycycline was added at a final concentration of 1 μg/mL to each well, while nothing was added to control wells.

[5] = test system: BCL2 family proteins; experiment: BLI specificity across BCL2 family proteins (next tightest binder versus intended target); design: species or system human; details: fold weaker affinity for next tightest binding BCL2 family protein versus intended target
[6] = target: BHRF1 (Epstein-Barr virus, UniProt P03182); details: FACS sort for binding signal after 400 nM BHRF1
BHRF1, sequence (P03182 1-161): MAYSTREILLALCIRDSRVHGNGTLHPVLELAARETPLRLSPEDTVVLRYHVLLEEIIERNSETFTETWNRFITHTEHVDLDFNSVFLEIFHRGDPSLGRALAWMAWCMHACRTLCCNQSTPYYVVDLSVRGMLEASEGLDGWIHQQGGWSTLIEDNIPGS
Text: This was reduced to 74 designs (Indexes-01 to 74) after filtering for strong interface binding energy, low monomer folding energy and a low number of buried unsatisfied hydrogen bonding atoms. Barcoded genes were synthesized (Table 3) and the library transformed in to yeast for surface display (6×10^5 transformants). […] The library was sorted by a single round of FACS for cells expressing surface protein (FIG. 1C; lane 1), for the 2% of cells with highest expression (lane 2), and for cells showing binding signal after incubation with 100 nM (lane 3) or 400 nM BHRF1 (lane 4). DNA from the naive and post-sorted populations was harvested and sequenced by Illumina deep sequencing, and the recovery of each designed sequence determined.
Binding of biotinylated protein to the yeast surface is detected with phycoerythrin-conjugated streptavidin (Invitrogen).
Yeast cells were sorted on a BD Influx cytometer operated by Spigot (BD Biosciences) and recovered in SDCAA media at 30° C. overnight. Yeast were lysed with 125 U/ml Zymolase at 37° C. for 5 h, and DNA was harvested (Zymoprep kit from Zymo Research). […] DNA was deep sequenced with a MiSeq™ sequencer (Illumina) and sequences were analyzed with adapted scripts from Enrich (Fowler et al., 2011). […]

Row | Molecule | effect on Bim binding profile ([1]; Bcl-2+ HeLa cells) | effect on Bim binding profile ([1]; wild-type HeLa cells) | affinity for other BCL2 family members relative to Mcl-1 [2] | decrease in survival [3] [%] | effect on long-term survival (in words) [4] | Specificity [5] | Log2 Enrichment Ratio: 400 nM BHRF1 [6]
1 | B1 | no effect | displacement of Bim from Mcl-1 | over ten thousand-fold weaker affinity | 90±11 | negligible effect | 93,000 | 
2 | B2 |  |  |  |  |  |  | BHRF1 −2.81
